Data: PMC4928587 (Molecular cancer research : MCR, 2009)

Biological target: GST/BRCA1-1293–1863 (human, UniProt P38398 1293-1863)
Experiment: pull-down

GST/BRCA1-1293–1863, sequence (P38398 1293-1863): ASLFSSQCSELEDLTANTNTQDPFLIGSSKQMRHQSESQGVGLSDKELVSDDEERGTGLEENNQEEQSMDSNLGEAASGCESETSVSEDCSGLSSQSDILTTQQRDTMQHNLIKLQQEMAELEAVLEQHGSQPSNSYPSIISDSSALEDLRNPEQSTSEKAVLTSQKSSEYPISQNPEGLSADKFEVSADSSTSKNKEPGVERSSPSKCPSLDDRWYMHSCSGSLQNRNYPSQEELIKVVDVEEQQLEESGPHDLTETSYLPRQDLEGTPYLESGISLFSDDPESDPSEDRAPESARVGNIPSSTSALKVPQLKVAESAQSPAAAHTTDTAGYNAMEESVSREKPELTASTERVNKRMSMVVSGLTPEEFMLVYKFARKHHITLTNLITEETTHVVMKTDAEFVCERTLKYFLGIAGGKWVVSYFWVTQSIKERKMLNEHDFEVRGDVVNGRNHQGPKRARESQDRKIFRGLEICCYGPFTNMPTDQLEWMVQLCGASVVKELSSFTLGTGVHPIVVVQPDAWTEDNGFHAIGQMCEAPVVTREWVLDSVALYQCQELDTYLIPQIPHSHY

- binding result: binds
B1: MBP/PALB2-1–70 (domain or fragment, human, UniProt Q86YC2 1-70, looked up)
chain: MDEPPGKPLSCEEKEKLKEKLAFLKREYSKTLARLQRAQRAEKIKHSIKKTVEEQDCLSQQDLSPQLKHS
